In article PMC2189805:

Biological target: SETα (human (endogenous in HeLa)) (UniProt Q01105)
Assay: co-IP

Sequence of UniProt Q01105 (Q01105 2-290): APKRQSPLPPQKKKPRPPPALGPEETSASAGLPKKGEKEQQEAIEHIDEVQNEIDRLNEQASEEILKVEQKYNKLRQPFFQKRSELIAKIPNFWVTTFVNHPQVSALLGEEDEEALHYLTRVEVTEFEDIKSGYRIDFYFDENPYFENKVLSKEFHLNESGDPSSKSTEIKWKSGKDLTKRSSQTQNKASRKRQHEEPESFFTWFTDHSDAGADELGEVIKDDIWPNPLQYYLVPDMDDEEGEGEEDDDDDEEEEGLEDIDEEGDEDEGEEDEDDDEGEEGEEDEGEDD

- percent of total cellular HuR bound: 5%
Substance: HuR (endogenous) (from UniProt Q15717 1-326) (natural protein)
